The source of these data is patent US6991794B1, “Progenitor cell preservation factors and methods for and products of their use” (ImClone Systems Incorporated, priority 1997, dated 2006).

In this assay the test system is untransfected 3T3 cells. Put plainly: untransfected parent 3T3 control cells (XTT). To be noted: Example 5 serum-free conditions. Type of assay: cell-based. How it is done:
Specifically, 3T3 cells cultured in tissue culture plates (Becton Dickinson Labware, Lincoln Park, N.J.) were removed from the plates by washing cells twice in Hank's buffered saline solution (HBSS; Gibco Laboratories, Grand Island, N.Y.). Non-enzymatic cell dissociation buffer (Gibco) was added for 15 minutes at room temperature. The resulting cells were washed in medium. FLT3 3T3 cells were cultured at a final concentration of 3,000 cells per well in a volume of 100 μL of serum-defined medium containing […] rhIL1-α, 10% AIMV (Gibco, Grand Island, N.Y.) and 90% Dulbecco's modification of Eagle's medium (DMEM; Gibco) in 96 well plates. […] Proliferation and cell survival was quantitated by addition of XTT (2, 3-bis[Methoxy-4-nitro-5sulfophenyl]-2H-tetrazolium-5 carboxanilide inner salt) (Diagnostic Chemicals Ltd, Charlottetown, Prince Edward Island, Canada), which is a […] cleaved by actively respiring cells (Roehm et al., J. Immunol. Methods 142: 257-265, 1991). Proliferation and cell survival was quantitated spectrophotometrically using a Vmax kinetic plate reader (Molecular Devices Corp., Mountain View, Calif.), and recorded as either relative activity (units/mL) or as specific activity (units/mg). One unit of biological activity was defined as the reciprocal dilution at which half-maximal stimulation of cells is detected. […]
Background: Formazan colour is commonly taken as a measure of viable cells.

B1: Pv-FRIL: FRIL family mannose-binding lectin from Phaseolus vulgaris (red kidney bean), SEQ ID NO: 6 (protein)
chain: AQSLSFNFTKFDLDQKDLIFQGDATSTNNVLQLTKLDSGGNPVGASVGRVLFSAPFHLWENSMAVSSFETNLTIQISTPHPYYAADGFAFFLAPHDTVIPPNSWGKFLGLYSNVFRNSPTSENQSFGDVNTDSRVVAVEFDTFPNANIDPNYRHIGIDVNSIKSKETARWEWQNGKTATARISYNSASKKSTVTTFYPGMEVVALSHDVDLHAELPEWVRVGLSASTGEEKQKNTIISWSFTSSLKNNEVKEPKEDMYIANVVRSYTWINDVLSYISNKMYDALNNNHKYVRCSTCMLFMKKK
Take B1: the “response of parent untransfected 3T3 cells” value was “did not”.
